According to article PMC6251626:

Target: αβ-tubulin heterodimer purified from porcine brains (porcine) (UniProt P02550)
Experiment: ITC; DRP or DRPΔN (135-250 μM) injected into αβ-tubulin (20-40 μM); 25°C, 50 mM HEPES pH 7.3, 100 mM KCl, 1 mM MgCl2, 50 μM GDP

- Kd: 461 nM
Substance: DRPΔN (DARPin D1 without its N-terminal ankyrin repeat) (designed binder)
